# Experimental data reported in the RNAGym collection of RNA variant scans (doi:10.1073/pnas.2313332121).
# Fewer inactive variants are shown than the library holds.
# B1: TPR 5TU (parent)
# chain: GGAUCUUCUCGAUCUAACAAAAAAGACAAAUCUGCCACAAAGCUUGAGAGCAUCUUCGGAUGCAGAGGCGGCAGCCUUCGGUGGCGCGAUAGCGCCAACGUUCUCAACUAUGACACGCAAAACGCGUGCUCCGUUGAAUGGAGUUUAUCAUG
# Variants of: B1
# Assay: polymerase ribozyme fitness, log enrichment relative to wild type (log ratio); higher = more active; in vitro selection for triplet polymerase activity
# How it was run: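 Mutant libraries for each subunit of a heterodimeric triplet polymerase ribozyme were made by PCR and then transcribed. Each library underwent one round of in vitro selection in triplicate: annealing with a biotinylated primer, the partner subunit and triplets, frozen incubation at −7 °C, gel excision of extended constructs, streptavidin-bead capture and RT-PCR. Input and output libraries were Illumina-sequenced, and only genotypes with ≥10 input reads and ≥1 read per output were kept. Fitness is the logarithm, base 2, of genotype enrichment over wild-type enrichment, computed from inverse-variance-weighted replicate averages.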
row,Variant,polymerase ribozyme fitness (log ratio)
1,A12U A23C C54U C116G A147C U151A,≤ -4.2
2,U13C C27U A37G C54U A106G U109G C123G G124A,-3.57
3,U13C U44A U56A C79U C93G C95U A115C G141U,≤ -4.2
4,A12U C27A A52C G71C C105U,≤ -4.2
5,U13C A16G A19C A28U C38U U55G A73C U77C C95G,≤ -4.2
6,A12U C87A C103G U135G,≤ -4.2
7,U13C G59C U61G C79U G84A C132A,-4.17
8,U13C C69A C87G A97U A147U,≤ -4.2
9,A12U C96U U144G,0.0703
10,A12G U55A U61G C125G,-3.62
11,A12U A39C A52G C57G,-4.2
12,A12U C18A C36U C57A C95U A97G A98U C125U,-3.95
13,U13C C125A G136C U145C U146C,-3.59
14,U13A G34U G94A U102G,≤ -4.2
15,A12G G25C A122G G136A,-3.16
16,A12U U56A C93U A147G,-1.6
17,A12U U56G A89G C93A A113G,-3.89
18,A12U A28U U44G C93A U102A,≤ -4.2
19,A12U U56A,-0.683
20,U13A C14A A60G C93U,-2.5
21,A12G U55A G71A G80C,≤ -4.2

row,Variant,polymerase ribozyme fitness (log ratio)
1,A12U C35A U44A G92C U127A C129G G143A U151C,≤ -4.2
2,U13A A20U U77A,≤ -4.2
3,A12U C57G G65A,-3.18
4,U13A A91G C114U A120G,-4.09
5,U13G A19U A49U C54G A89G C93U U127C,≤ -4.2
6,U13C G83C C96U C114U,-4.13
7,A12G C93A,-2.26
8,A12G C93U,-1.21
9,A12G C75G C93U C108U A110C,≤ -4.2
10,U13C G94C,-0.0586
11,U13C G94A,-0.431
12,A12U A19G U82C G83A A119U,-4.07
13,A12G G83C,-0.586
14,U13C U78G C85A C116U,≤ -4.2
15,U13C G58A G88U U90A U102G,≤ -4.2
16,A12U A19U C35A U61G C69U U78G G80C A97C G126U,≤ -4.2
17,A12G U13A A19C G92C C99U G124C U148G G152U,≤ -4.2
18,U13C U45G G81A C85U C118U G126A,≤ -4.2
19,A12G G83U G92U A142G,-2.93
20,A12U C14A C85G U145C,-3.7
21,A12U A22U C27U A40G C69A U78A G94A A115C A119U G124A,≤ -4.2

row,Variant,polymerase ribozyme fitness (log ratio)
1,U13C U53G C87A A120U A142U U146A,≤ -4.2
2,U13G A20C U55G U90G C95G C105A C116G G124A,≤ -4.2
3,A12U A28U U102A U139G U148G,-4.1
4,U13C U33A C54A C95G A98C C99A A150G,≤ -4.2
5,A12U G71A A107C,≤ -4.2
6,U13G A21U C32G A73U U78A C87A C118A,≤ -4.2
7,U13C U104G,-1.57
8,U13A C69A A120C,-2.74
9,U13C A39C U56A C95U G124A,-3.63
10,U13C C14U U77G G84U U145G U148A,≤ -4.2
11,A12G U151G,-4.06
12,U13C A19G U45G C93A A106U,-2.34
13,U13A C36A G50A C79U C96A,≤ -4.2
14,U13A A30U U33G G46A G86A A91U A119G,≤ -4.2
15,A12U C85A,-1.85
16,A12U C85G,-1.91
17,A12U C85U,-0.742
18,U13C C27A A49C U56A A97U,≤ -4.2
19,U13A C38U G83C G140A,≤ -4.2
20,A12U C38G G59U,-0.492
21,A12G C57U U61A G68A G70C C87U C96A G133A U148A,≤ -4.2

row,Variant,polymerase ribozyme fitness (log ratio)
1,A12U C116G,-0.634
2,A12U G50A C85A G88A A121G,≤ -4.2
3,A12U A41U G65C G70C C79U,≤ -4.2
4,A12U U102G,-3.28
5,U13A A52U A73G C85A U134G,≤ -4.2
6,U13A A30G A37C G68U,≤ -4.2
7,U13A C18G,-0.831
8,A12U C35G A60C U61A C76A G124U,≤ -4.2
9,A12G C87G G88U C96U C105A C108G C116U,≤ -4.2
10,U13A A20U A28C C93U G136C A137U,≤ -4.2
11,A12G C99G,-0.551
12,A12U A28U U55G A66C G74C G80C C85A C87U C96U,≤ -4.2
13,A12U G58U G83A C93A,≤ -4.2
14,A12G U53A G68A A107U,≤ -4.2
15,A12G C85A,-1.31
16,A12U U45A U55G A66G U78C G88U C95G A137U,≤ -4.2
17,A12U C54U U134A U145G,-3.56
18,U13A C32U G67C C85A C105U G140A,≤ -4.2
19,U13C G58C G67A G94C,≤ -4.2
20,A12G U45G C69G A91C A115G G133A G143U,≤ -4.2
